In patent publication US20240424107, “PREPARATION OF SITE-SPECIFIC POLYPEPTIDE CONJUGATES” (POSTECH RESEARCH AND BUSINESS DEVELOPMENT FOUNDATION, published 2024):

Target: trastuzumab (humanized IgG1 monoclonal antibody) (UniProt P01857-1;P01834 P01857-1:1-330,P01834:1-107)
Test: covalent conjugation at heavy chain only, at least one per antibody; HEPES pH 8.4, Mg, K, 37 C, 1 day
Conditions: chain copies: 2
Text: Whether the aptamer brings oxanine close to the amine group of the target protein, enabling proximity-enhanced covalent bond formation, was monitored with SDS-PAGE (protein bands) and electrophoresis (DNA bands).

trastuzumab (humanized IgG1 monoclonal antibody), sequence (P01857 other isoform, or with tags, fused parts or gaps, chain 1 of 2, other chains not shown): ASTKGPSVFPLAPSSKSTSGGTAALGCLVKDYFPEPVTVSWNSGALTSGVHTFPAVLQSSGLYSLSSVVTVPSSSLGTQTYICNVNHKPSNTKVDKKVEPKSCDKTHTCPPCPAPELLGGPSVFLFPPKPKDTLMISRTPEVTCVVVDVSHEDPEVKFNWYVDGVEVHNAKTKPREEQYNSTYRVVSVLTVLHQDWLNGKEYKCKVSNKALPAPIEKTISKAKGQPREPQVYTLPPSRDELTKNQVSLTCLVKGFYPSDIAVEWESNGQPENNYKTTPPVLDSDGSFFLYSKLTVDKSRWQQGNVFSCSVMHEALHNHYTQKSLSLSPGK

B1: Fc RNA aptamer Apt8-2-oxanine (mixed)
DNA: GGAGGTGCTCCGAAAGGAACTCC
modifications: printed ggAGG[2'-F-rU]Gc[2'-F-rU]ccgaaaGgaa[2'-F-rC][2'-F-rU]cc (lowercase DNA, uppercase RNA); about 10 oxanine nucleotides added at 3' end
binding result: binds
